Literature values in publication PMC3367028.

Biological target: CD74 (Homo sapiens) (UniProt P04233)
Assay: SPR

Sequence of UniProt P04233 (P04233 73-296): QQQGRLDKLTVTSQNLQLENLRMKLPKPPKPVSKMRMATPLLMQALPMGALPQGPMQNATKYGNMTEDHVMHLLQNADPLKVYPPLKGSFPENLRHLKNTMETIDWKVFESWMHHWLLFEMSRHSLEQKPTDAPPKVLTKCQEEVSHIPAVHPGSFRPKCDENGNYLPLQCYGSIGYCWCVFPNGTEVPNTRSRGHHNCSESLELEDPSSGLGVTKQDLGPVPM

With D-DT (from UniProt P30046) as the substance, how does the Kd read?
Its Kd is 5.42 nM.
